Source: the supplement of paper PMC5998384

Columns and labels:
HeLa Kyoto [1] = assay: solubility change mitosis vs G1/S (difference of NP-40 vs SDS log2 ratios) (log2 ratio difference); higher = more soluble in mitosis
HeLa Kyoto [2] = assay: solubility in G1/S (NP-40 vs SDS abundance) (log2 ratio); higher = more soluble; details: cell cycle stage: G1/S
HeLa Kyoto [3] = assay: melting temperature (median over replicates), in situ; higher = more thermally stable
HeLa Kyoto [4] = assay: thermal stability score vs G1/S (z-score of summed log2 fold changes over temperatures); higher = more thermally stable than in G1/S
[5] = cell cycle stage: early G1 (4.5 h after nocodazole release)
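For melting temperature (median over replicates), in situ in this document: HeLa Kyoto cells synchronized by double thymidine or nocodazole block, proteins quantified by TMT10plex mass spectrometry, three independent biological replicates.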
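For solubility change mitosis vs G1/S (difference of NP-40 vs SDS log2 ratios) in this document: synchronized HeLa Kyoto cells (double thymidine block for G1/S, nocodazole release for mitosis), protein amounts in NP-40 versus SDS lysates quantified by mass spectrometry, three biological replicates.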
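For solubility in G1/S (NP-40 vs SDS abundance) in this document: HeLa Kyoto cells arrested at G1/S by double thymidine block, proteins quantified by TMT10plex mass spectrometry in mild NP-40 versus SDS extracts, three biological replicates.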
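For thermal stability score vs G1/S (z-score of summed log2 fold changes over temperatures) in this document: synchronized HeLa Kyoto cells, proteins quantified by TMT10plex mass spectrometry, three biological replicates, mitosis taken 0.5 h after nocodazole release, G1/S directly after double thymidine block.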

Sequence	solubility change mitosis (log2) (HeLa Kyoto [1])	solubility in G1/S (log2) (HeLa Kyoto [2])	melting temperature (HeLa Kyoto [3]; cell cycle stage: G1/S)	melting temperature (HeLa Kyoto [3]; cell cycle stage: mitosis)	thermal stability score (HeLa Kyoto [4]; [5])	thermal stability score (HeLa Kyoto [4]; cell cycle stage: mitosis)
MAAAAGMLLLGLLQAGGSVLGQAMEKVTGGNLLSMLLIACAFTLSLVYLIRLAAGHLVQLPAGVKSPPYIFSPIPFLGHAIAFGKSPIEFLENAYEKYGPVFSFTMVGKTFTYLLGSDAAALLFNSKNEDLNAEDVYSRLTTPVFGKGVAYDVPNPVFLEQKKMLKSGLNIAHFKQHVSIIEKETKEYFESWGESGEKNVFEALSELIILTASHCLHGKEIRSQLNEKVAQLYADLDGGFSHAAWLLPGWLPLPSFRRRDRAHREIKDIFYKAIQKRRQSQEKIDDILQTLLDATYKDGRPLTDDEVAGMLIGLLLAGQHTSSTTSAWMGFFLARDKTLQKKCYLEQKTVCGENLPPLTYDQLKDLNLLDRCIKETLRLRPPIMIMMRMARTPQTVAGYTIPPGHQVCVSPTVNQRLKDSWVERLDFNPDRYLQDNPASGEKFAYVPFGAGRHRCIGENFAYVQIKTIWSTMLRLYEFDLIDGYFPTVNYTTMIHTPENPVIRYKRRSK [CYP51A1]	0.0784	-0.38	48.4 °C	50 °C	2.55	3.17
MAAAAVAAAAAAAAAASLQVLEMESMETAAAGSAGLAAEVRGSGTVDFGPGPGISAMEASGGDPGPEAEDFECSSHCSELSWRQNEQRRQGLFCDITLCFGGAGGREFRAHRSVLAAATEYFTPLLSGQFSESRSGRVEMRKWSSEPGPEPDTVEAVIEYMYTGRIRVSTGSVHEVLELADRFLLIRLKEFCGEFLKKKLHLSNCVAIHSLAHMYTLSQLALKAADMIRRNFHKVIQDEEFYTLPFHLIRDWLSDLEITVDSEEVLFETVLKWVQRNAEERERYFEELFKLLRLSQMKPTYLTRHVKPERLVANNEVCVKLVADAVERHALRAENIQSGTCQHPTSHVSLLPRYGQNMDVIMVIGGVSEGGDYLSECVGYFVDEDRWVNLPHIHNHLDGHAVAVTESYVYVAGSMEPGFAKTVERYNPNLNTWEHVCSLMTRKHSFGLTEVKGKLYSIGGHGNFSPGFKDVTVYNPELDKWHNLESAPKILRDVKALAIEDRFVYIAARTPVDRDTEDGLKAVITCYDTETRQWQDVESLPLIDNYCFFQMSVVNSNFYQTASCCPKSYCLENEEAVRKIASQVSDEILESLPPEVLSIEGAAICYYKDDVFIIGGWKNSDDIDKQYRKEAYRYCAERKRWMLLPPMPQPRCRATACHVRIPYRYLHGTQRYPMPQNLMWQKDRIRQMQEIHRHALNMRRVPSSQIEC [KLHL11]	-0.089	-0.226	51.8 °C	50.7 °C	0.384	0.29
MAAAEPSPRRVGFVGAGRMAGAIAQGLIRAGKVEAQHILASAPTDRNLCHFQALGCRTTHSNQEVLQSCLLVIFATKPHVLPAVLAEVAPVVTTEHILVSVAAGVSLSTLEELLPPNTRVLRVLPNLPCVVQEGAIVMARGRHVGSSETKLLQHLLEACGRCEEVPEAYVDIHTGLSGSGVAFVCAFSEALAEGAVKMGMPSSLAHRIAAQTLLGTAKMLLHEGQHPAQLRSDVCTPGGTTIYGLHALEQGGLRAATMSAVEAATCRAKELSRK [PYCRL]	0.0528	0.155	53.5 °C	55.3 °C	-1.28	-1.85
MAAAGAAATHLEVARGKRAALFFAAVAIVLGLPLWWKTTETYRASLPYSQISGLNALQLRLMVPVTVVFTRESVPLDDQEKLPFTVVHEREIPLKYKMKIKCRFQKAYRRALDHEEEALSSGSVQEAEAMLDEPQEQAEGSLTVYVISEHSSLLPQDMMSYIGPKRTAVVRGIMHREAFNIIGRRIVQVAQAMSLTEDVLAAALADHLPEDKWSAEKRRPLKSSLGYEITFSLLNPDPKSHDVYWDIEGAVRRYVQPFLNALGAAGNFSVDSQILYYAMLGVNPRFDSASSSYYLDMHSLPHVINPVESRLGSSAASLYPVLNFLLYVPELAHSPLYIQDKDGAPVATNAFHSPRWGGIMVYNVDSKTYNASVLPVRVEVDMVRVMEVFLAQLRLLFGIAQPQLPPKCLLSGPTSEGLMTWELDRLLWARSVENLATATTTLTSLAQLLGKISNIVIKDDVASEVYKAVAAVQKSAEELASGHLASAFVASQEAVTSSELAFFDPSLLHLLYFPDDQKFAIYIPLFLPMAVPILLSLVKIFLETRKSWRKPEKTD [PIGS]	-0.13	0.0826	52.6 °C	53.1 °C	2.4	4.4
MAAAKVALTKRADPAELRTIFLKYASIEKNGEFFMSPNDFVTRYLNIFGESQPNPKTVELLSGVVDQTKDGLISFQEFVAFESVLCAPDALFMVAFQLFDKAGKGEVTFEDVKQVFGQTTIHQHIPFNWDSEFVQLHFGKERKRHLTYAEFTQFLLEIQLEHAKQAFVQRDNARTGRVTAIDFRDIMVTIRPHVLTPFVEECLVAAAGGTTSHQVSFSYFNGFNSLLNNMELIRKIYSTLAGTRKDVEVTKEEFVLAAQKFGQVTPMEVDILFQLADLYEPRGRMTLADIERIAPLEEGTLPFNLAEAQRQKASGDSARPVLLQVAESAYRFGLGSVAGAVGATAVYPIDLVKTRMQNQRSTGSFVGELMYKNSFDCFKKVLRYEGFFGLYRGLLPQLLGVAPEKAIKLTVNDFVRDKFMHKDGSVPLAAEILAGGCAGGSQVIFTNPLEIVKIRLQVAGEITTGPRVSALSVVRDLGFFGIYKGAKACFLRDIPFSAIYFPCYAHVKASFANEDGQVSPGSLLLAGAIAGMPAASLVTPADVIKTRLQVAARAGQTTYSGVIDCFRKILREEGPKALWKGAGARVFRSSPQFGVTLLTYELLQRWFYIDFGGVKPMGSEPVPKSRINLPAPNPDHVGGYKLAVATFAGIENKFGLYLPLFKPSVSTSKAIGGGP [SLC25A13]	-0.142	0.0358	55.3 °C	55.3 °C	-1.62	-1.29
MAAALGASGGAGAGDDDFDQFDKPGAERSWRRRAADEDWDSELEDDLLGEDLLSGKKNQSDLSDEELNDDLLQSDNEDEENFSSQGVTISLNATSGMVTSFELSDNTNDQSGEQESEYEQEQGEDELVYHKSDGSELYTQEYPEEGQYEGHEAELTEDQIEYVEEPEEEQLYTDEVLDIEINEPLDEFTGGMETLELQKDIKEESDEEEEDDEESGRLRFKTERKEGTIIRLSDVTRERRNIPETLELSAEAKAALLEFEERERQHKQGRYSSRRGGRRGGPLMCRGVGDQRRESTERGRMKDHRPALLPTQPPVVPQAPPPPPPPPQQQPIRSLFQPQPLQPLLPVQHPHHPSPPQGMHMPPQLETPRMMMTPPPVTPQQPKNIHINPHFKGTVVTPVQVPLLPVPSQPRPAVGPQRFPGPPEFPQHTPGPVPNSFSQPPRLPLQDQWRAPPPPQDRDPFFLGVSGEPRFPSHLFLEQRSPPPPPPPPTLLNSSHPVPTQSPLPFTQPGPAFNQQGQQPVFPRERPVRPALQPPGPVGILHFSQPGSATTRPFIPPRQPFLPGPGQPFLPTHTQPNLQGPLHPPLPPPHQPQPQQPQQQPPPQHQPPHQPPHQPPPQHQPPPQHPPQHPPQHQHHHHHHHLSVPPPPLMPMSQPQFRPHVQTAQPQASSSRMQCPQRQGLRHNTTSQNVSKRPMQQMQPTAPRNSNLRELPIAPSHVIEMSSSRCSATPSAQVKPIVSASPPSRAVAGSRSSQGKTEVKVKPASPVAQPKEEAKTETEFPDEDEETRLYRLKIEEQKRLREEILKQKELRRQQQAGARKKELLERLAQQQQQLYAPPPPAEQEEQALSPSPTNGNPLLPFPGAQVRQNVKNRLLVKNQDVSISNVQPKTSNFVPSSANMQYQGQQMKALKHLRQTRTVPQSQTQPLHKVLPIKPADVEEPAVPQTPRVASIQGRPQDTKPGVKRTVTHRTNSGGGDGPHISSKVRVIKLSGGGGESDGFFHPEGQPQRLPQPPEVGPQPARKVTLTRGGLQQPPHLPAGPHAHSPVPPGIKSIQGIHPAKKAIMHGRGRGVAGPMGRGRLMPNKQNLRVVECKPQPCVVSVEGLSSSTTDAQLKSLLMSVGPIQSLQMLPQQRKAIAKFKEPAHALAFQQKFHRHMIDLSHINVALIVE [RBM33]	-0.145	-0.022	48.8 °C	50.8 °C	0.706	2.36
MAAAMPLALLVLLLLGPGGWCLAEPPRDSLREELVITPLPSGDVAATFQFRTRWDSELQREGVSHYRLFPKALGQLISKYSLRELHLSFTQGFWRTRYWGPPFLQAPSGAELWVWFQDTVTDVDKSWKELSNVLSGIFCASLNFIDSTNTVTPTASFKPLGLANDTDHYFLRYAVLPREVVCTENLTPWKKLLPCSSKAGLSVLLKADRLFHTSYHSQAVHIRPVCRNARCTSISWELRQTLSVVFDAFITGQGKKDWSLFRMFSRTLTEPCPLASESRVYVDITTYNQDNETLEVHPPPTTTYQDVILGTRKTYAIYDLLDTAMINNSRNLNIQLKWKRPPENEAPPVPFLHAQRYVSGYGLQKGELSTLLYNTHPYRAFPVLLLDTVPWYLRLYVHTLTITSKGKENKPSYIHYQPAQDRLQPHLLEMLIQLPANSVTKVSIQFERALLKWTEYTPDPNHGFYVSPSVLSALVPSMVAAKPVDWEESPLFNSLFPVSDGSNYFVRLYTEPLLVNLPTPDFSMPYNVICLTCTVVAVCYGSFYNLLTRTFHIEEPRTGGLAKRLANLIRRARGVPPL [PIGT]	-0.141	0.0123	53.8 °C	52.5 °C	1.75	1.86
MAAAPLKVCIVGSGNWGSAVAKIIGNNVKKLQKFASTVKMWVFEETVNGRKLTDIINNDHENVKYLPGHKLPENVVAMSNLSEAVQDADLLVFVIPHQFIHRICDEITGRVPKKALGITLIKGIDEGPEGLKLISDIIREKMGIDISVLMGANIANEVAAEKFCETTIGSKVMENGLLFKELLQTPNFRITVVDDADTVELCGALKNIVAVGAGFCDGLRCGDNTKAAVIRLGLMEMIAFARIFCKGQVSTATFLESCGVADLITTCYGGRNRRVAEAFARTGKTIEELEKEMLNGQKLQGPQTSAEVYRILKQKGLLDKFPLFTAVYQICYESRPVQEMLSCLQSHPEHT [GPD1L]	-0.126	0.144	53.2 °C	53 °C	0.464	-0.000421
MAAAPPLRDRLSFLHRLPILLKGTSDDDVPCPGYLFEEIAKISHESPGSSQCLLEYLLSRLHSSSGHGKLKVLKILLYLCSHGSSFFLLILKRNSAFIQEAAAFAGPPDPLHGNSLYQKVRAAAQDLGSTLFSDTVLPLAPSQPLGTPPATGMGSQARPHSTLQGFGYSKEHGRTAVRHQPGQAGGGWDELDSGPSSQNSSQNSDLSRVSDSGSHSGSDSHSGASREPGDLAERVEVVALSDCQQELSLVRTVTRGPRAFLSREEAQHFIKACGLLNCEAVLQLLTCHLRGTSECTQLRALCAIASLGSSDLLPQEHILLRTRPWLQELSMGSPGPVTNKATKILRHFEASCGQLSPARGTSAEPGPTAALPGPSDLLTDAVPLPGSQVFLQPLSSTPVSSRSPAPSSGMPSSPVPTPPPDASPIPAPGDPSEAEARLAESRRWRPERIPGGTDSPKRGPSSCAWSRDSLFAGMELVACPRLVGAGAAAGESCPDAPRAPQTSSQRTAAKEPPGSEPSAFAFLNA [ENTHD2]	0.0532	0.305	53.4 °C	50.6 °C	-0.323	-0.0735
MAAARATTPADGEEPAPEAEALAAARERSSRFLSGLELVKQGAEARVFRGRFQGRAAVIKHRFPKGYRHPALEARLGRRRTVQEARALLRCRRAGISAPVVFFVDYASNCLYMEEIEGSVTVRDYIQSTMETEKTPQGLSNLAKTIGQVLARMHDEDLIHGDLTTSNMLLKPPLEQLNIVLIDFGLSFISALPEDKGVDLYVLEKAFLSTHPNTETVFEAFLKSYSTSSKKARPVLKKLDEVRLRGRKRSMVG [TP53RK]	-0.151	0.367	55.1 °C	53 °C	0.0261	-0.818
